Measured values taken from the supplement of paper PMC9170038.

Test system: K4 kissing-loop RNA reporter
Assay: apparent KD of K4 kissing-loop reporter; higher = weaker reporter binding
Conditions: Eterna round: R107
Procedure: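 RNA-MaP round R107: designed RNA switches with theophylline, tryptophan, arginine or FMN aptamers are transcribed on-chip within common flanks. They are titrated with a labelled K4 kissing-loop RNA reporter in RNA-MaP buffer (100 mM Tris pH 7.5, 80 mM KCl, 4 mM MgCl2), without ligand or with the indicated ligand. Median apparent KD per design.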

[1] = input ligand: theophylline 20 uM
[2] = input ligand: tryptophan 2.4 mM
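Also: bound reporter read as fluorescence of individual clusters on recovered sequencing chips by microscopy, with normalized cluster intensities fitted with a binding model.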

| Sequence | apparent KD of K4 kissing-loop reporter (input ligand: FMN 200 uM) | apparent KD of K4 kissing-loop reporter (input ligand: arginine 13.2 mM) | apparent KD of K4 kissing-loop reporter (input ligand: none) | apparent KD of K4 kissing-loop reporter [1] | apparent KD of K4 kissing-loop reporter [2] |
| --- | --- | --- | --- | --- | --- |
| UGGAUAUAGUGAUGUUAUAUAGAGAGUGAUACCAGUUUAGAGAAGAACCCUUGGCAGCAUAAAGAAGUAUCAUUAGAGAAGAAUG [ExTheophyl.Ao] | 229 nM | 216 nM | 282 nM | 224 nM | 176 nM |
| UGGGCUGCCUGAGGAUAUAGAGACGAGUGAUGUUCGUGGAUAAGAGCCAGUGAUGUUGGGUUAUUUCUAGAAGGCGGGCGAACUU [Exclusion FMN B GF8] | 105 nM | 104 nM | 120 nM | 129 nM | 115 nM |
| UGGUUUAGAAGUGAUGUUUCGAUAAGUGAUACCAGACAAAAGAAAGUCCCUUGGCAGCACAAUGAUGCCAAGGAAACGGCAUGAU [Same State Theophylline A GF 1] | 118 nM | 146 nM | 115 nM | 127 nM | 98.9 nM |
| UGUACCGAGUCAGGAUAUGGCGUCGAAAGACGAAUGCUAGUGAUGUUAGGGAUCUGCGAAAGCAGUUCAGAAGGGACUUGGUACU [FmnBS 26 G36+U67] | 275 nM | 292 nM | 404 nM | 379 nM | 338 nM |
| UGUACCGAGUGAGGAUAUGUCGUCGAAAGACGAAAUGGAGUGAUGUUCCUUAAACUGCGAAAGCAGACAGAAGGCACUUGGUACU [FmnBS 29 G11+C75] | 129 nM | 171 nM | 192 nM | 170 nM | 168 nM |
| UGUACCGAGUGAGGAUAUGUCGUCGAAAGACGAAAUGGAGUGAUGUUCCUUAAACUGCGAAAGCAGACAGAAGGUACUUGGUACU [FmnBS 29 G11+U75] | 144 nM | 298 nM | 302 nM | 312 nM | 275 nM |
| UGUAUGUGAUUUGAUACCAGACCAGCUGGUGGAAACUGAGUGAUGUUCAGUUAGGUUUGGGUCCCUUGGCAGCAAAUCGCAUACU [KL-SSTheoB28] | 152 nM | 119 nM | 127 nM | 134 nM | 138 nM |
| UGUAUGUGAUUUGAUACCAGACCAGCUGGUGGUACCUGAGUGAUGUUCGGGAUGGUCUGGGUCCCUUGGCAGCAAAUCGCAUACU [KL-SSTheoB21] | 295 nM | 175 nM | 254 nM | 212 nM | 212 nM |
| UGUAUGUGAUUUGAUACCAGACCAGCUGGUGGUGUAUGAGUGAUGUUCAUGCUGGUUUGGGUCCCUUGGCAGCAAAUCGCAUACU [KL-SSTheoB29] | 10.6 nM | 6.48 nM | 8.46 nM | 7.6 nM | 8.89 nM |
| UGUCAUUGGUCGGAUACCAGUUGAUGACGAAUACGUCAACUGGAGUGAUGUUCCUAAAACAACCCUUGGCAGCCGACCGAUGACU [MAT - Same State Theophlline B - Mod of Eli - D1] | 937 nM | 641 nM | 852 nM | 666 nM | 761 nM |
| UGUCAUUGGUCGGCCGCCACUACAAGGUCAAAGACCAAAGAGUGAUGUUCUUAGACGAAAGUCAGUAGGACCGGGACCGAUGACU [TrypBS 8 #SwitchBubble #K4Middle] | 1050 nM | 707 nM | 1320 nM | 674 nM | 274 nM |
| UGUCAUUGGUCGGCCGCCACUAGAAGGUCAAAGACCAUAGAGUGAUGUUCUGAGACGAAAGUCACUAGGACCGGGACCGAUGACU [TrypBS 6 #SwitchBubble #K4Middle] | 462 nM | 385 nM | 1140 nM | 440 nM | 786 nM |
| UGUCAUUGGUCGGCCGCCACUAGGACCGGGUUUUGCCUAGUGAUGUUAGUAUGAACGGCCGCCACUAGGACCGGGACCGAUGACU [KL-SSTryp-B26 #DoubleAptamer] | 468 nM | 279 nM | 473 nM | 377 nM | 105 nM |
| UGUCAUUGGUCGGCCGCCACUUCAUAAAAGAGUGAUGUUCUAAAGACGGAUCGAAAGAUCUGUCGAAGGACCGGGACCGAUGACU [TrypBS 19 #SwitchBubble #StaticStem] | 508 nM | 168 nM | 209 nM | 419 nM | 753 nM |
| UGUCAUUGGUCUGAUACCAGAAGAUAAUCUGGAGUGAUGUUCCAAGUACGACAAAGUCGCUUCCCUUGGCAGCAGACCGAUGACU [TheoBS 19 #SwitchBubble 13 #StaticStem] | 1040 nM | 759 nM | 1110 nM | 619 nM | 886 nM |
| UGUCAUUGGUCUGAUACCAGUUAGACCGAUAGGUCAAAACUGGAGUGAUGUUCCUAAAAUAACCCUUGGCAGCAGACCGAUGACU [TheoBS 2 #SwitchBubble #StaticStem] | 1380 nM | 601 nM | 1010 nM | 856 nM | 954 nM |
| UGUCUUUUUUUGAUGUUUUUUGUAUAAUGGCAGGAUAUCGUAGAUGCGAGAAGGGCUUUUAUGCGUUAUGAGUGAUGUUUGUAGG [vjjbvmullin] | 329 nM | 260 nM | 297 nM | 332 nM | 225 nM |
| UGUGAGCUGUCGACAAAAGUCGACUAAAACUAGGAUAUGACGAAAGUCAGAAGGAGUCAAUAAUGGAGUGAUGUUCCUGCUCACU [FmnA 9 U31+A55] | 277 nM | 367 nM | 414 nM | 386 nM | 331 nM |
| UGUGAUGUGUAGUGUAAUGUUUUGCGGGAUACCAGAGUCUUUUUAUUCCCUUGGCAGCUUGAGUGAUGUUUGAUGCUGUUCUUGU [llmdmullin] | 519 nM | 351 nM | 479 nM | 439 nM | 326 nM |
| UGUGAUGUGUAGUGUUAUGUUUUGAGGGAUACCAGAGUGUUUUUAUUCCCUUGGCAGCUUGAGUGAUGUUUGAUGUUGUUGUUGU [knnumullin] | 303 nM | 166 nM | 232 nM | 213 nM | 187 nM |
| UGUGGAGAAUAUGAUACCAGCAGUGAGAGAGAGGAAGUAUAGUGAUGUUAUAUGAGAGAAUGCCCUUGGCAGCAUAUGUAGAAGG [SSTheophylB.F] | 133 nM | 154 nM | 107 nM | 93.6 nM | 128 nM |
| UGUGUUGUUUUGAUGUUUGGUGUUGCAUGGCAGGAUAUCGUAGAGGCGAGAAGGGCUUGUGAGCGGUAUGAGUGAUGUUUGUAGG [bbgbmullin] | 433 nM | 270 nM | 406 nM | 400 nM | 299 nM |
